Consider one substance from US20250269043A1, “TARGETED BIFUNCTIONAL DEGRADERS” (YALE UNIVERSITY, priority 2019, published 2025).

Assay [1] addresses asialoglycoprotein receptor on the surface of immortalized human hepatocyte HepG2 cells (human) (UniProt P07306). The assay is described as follows: cell-based or functional assay.
For assay [2] the target is unchanged. As to the kind of experiment: flow cytometry competition on HepG2 cells: ASOR against DNP-AF3 (40 nM)-mediated association of α-DNP antibody (100 nM) with ASGPR.

Chain of asialoglycoprotein receptor on the surface of immortalized human hepatocyte HepG2 cells (human) (P07306 whole entry, chain 1 of 2): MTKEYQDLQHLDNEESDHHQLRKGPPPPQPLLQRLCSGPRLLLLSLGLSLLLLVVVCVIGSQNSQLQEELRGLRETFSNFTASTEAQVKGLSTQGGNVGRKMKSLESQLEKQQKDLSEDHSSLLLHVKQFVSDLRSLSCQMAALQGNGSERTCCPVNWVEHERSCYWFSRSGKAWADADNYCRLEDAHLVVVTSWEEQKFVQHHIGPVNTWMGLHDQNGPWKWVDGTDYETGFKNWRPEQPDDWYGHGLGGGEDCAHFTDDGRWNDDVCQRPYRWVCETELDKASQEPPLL
Chain of asialoglycoprotein receptor on the surface of immortalized human hepatocyte HepG2 cells (human) (P07307 whole entry, chain 2 of 2, further chain): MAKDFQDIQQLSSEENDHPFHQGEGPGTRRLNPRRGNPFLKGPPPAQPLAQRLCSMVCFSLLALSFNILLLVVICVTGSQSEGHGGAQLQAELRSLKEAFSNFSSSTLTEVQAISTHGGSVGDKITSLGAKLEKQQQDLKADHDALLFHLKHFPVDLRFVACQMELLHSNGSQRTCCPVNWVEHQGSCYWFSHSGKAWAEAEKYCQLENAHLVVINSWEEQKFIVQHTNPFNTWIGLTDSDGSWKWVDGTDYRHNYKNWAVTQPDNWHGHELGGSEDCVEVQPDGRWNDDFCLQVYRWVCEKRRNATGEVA

For asialoorosomucoid (ligand), the mean fluorescence of the cell population (DNP-AF3-mediated α-DNP antibody endocytosis, HepG2, flow cytometry); about 1.31e6 without inhibitor (mean fluorescence) in assay [1] came to 466000. This substance showed a percent decrease of ternary complex formation at 2.38 µM ASOR in assay [2] of 70%.
